Measurements published in the DeepSol protein solubility set.

assay: soluble on expression in E. coli; label from the status in PepcDB or PDB records

Row | Sequence | soluble on expression in E. coli
1 | QSQSNQATPSKVVSGEVNAASFAQFSNAFIDDLWQLSPTWALYSGKHVNDGYLEIPDEAGRVKTLAFVKAQQAKLKQFELKSLTSNETIDYHLIDNLLSSMAWDITRFKSWQWDPSSYNVAGGFAQIINENFAPLDDRLRSVLARMENIPAYYAAARGNISQPTLEHTELAVLQNQGAFSVFSDDLLKQVADSGLSDAEKALFKTRFDIASKAINEHISWLNAQVSQLKKEGARSFRIGEELYEQKFAFDIQAGMTAKQLYQKAMVDKDRVQGEMAKITDKLWPKYFTTPKPSDNKIAIRQLIDKLSTKHVKRDDFVSEVRKQIPELIEFVNQKNIVTLDPKKPLVVRETPEYMRGYAGASISAPGPYDKLGNTYYNVTPLDGMSNESAESYLREYNHWILQILNIHEAIPGHYTQLVYSNESPSLVKSLFGNGAMVEGWAVYTERMMLEEGYGNFEPEMWLMYYKWNLRVICNTILDYSIHVKGMTEEQAIALMMDEAFQQRAEAEGKWRRATLSQVQLTSYYSGYREIYDFREEYKQLKGKDFDLKAFHEKFLSYGSAPVKYIRQLMLE | soluble
2 | QTIFRVQTPYTHNGYMKTECYAFDFAPDRTLRVLAEAAKVSYKAGKQSESDRKLLGDFLNFCPIISIEGSRMKPYDVNTMLGQLKRAQIEKVVQDGFENGALYNDELLKLTEVELHDFDELKGIIGKTKAMAKSGDIDINHQGLTHEQYEEKERLEKRKKKGLTPEEKKRLDELKAKGDQRREAISILRGISIRMPLMLYGAEMKDEDKELTIDNFANLVDEQSWQEFMPRGVTKAVFRRFKRYYDPDIFREAGKRIREMARMADKFTIEERIGRIASIFSTFRNPDKETVLTPWRVVNMHLGDSIGGYCFMSEDFSTPIALPRYIEHQGITNEVFHPKSIILEINSKSGLYPLYAAYNIYRTRVEEAREKYGDVTRAFALQLWDRTLEENIFVVCKTPMARYITMRTLRGFRDVVTHTEHYPDLIENITSQPDSVVNMLRSGKRFWKINNDENMKIDAIIGNPPYQVMNQGKGNGSDPIYHKFFDLAMVLAPQGTLIHPARFLFNAGKTPKEWNEKMLSDKHYRVVDYWPNSAEVFPTVDVKGGIATSYWNKKMILGPIGMFSAFDELHHILYKVEQTNPLPFSNLVAPRELYRITDELYQEHPDLNGRQSAGHKYSFGANIFDVFPEVFFDEYPQGREEKMACIYGRANKQRCYKWCKRSYITHPENFAKYKVIIPKTNGSGAIGE | not soluble
3 | QTINKIDLQALEESQIDWAKYQPHQAVVLKARKQLRDHQQTALNATAAGLNDAERGKLIMACGTGKTFTSLKIAERLAGKGKRVLFLVPSLSLLSQTLTEWTQESETPLHSFAVCSDSDVGKKRKADEDTVQVFTHELRYPATTKADRLAAEMLKRHDAEHMSVVFSTYHSIDVISRAQHEYDLAAFDLVICDEAHRTTGATFDDDDESTFVRIHDVDYIRAIKRLYMTA | not soluble
4 | QVKLQQSGGGLVKPGASLKLSCVTSGFTFRKFGMSWVRQTSDKCLEWVASISTGGYNTYYSDNVKGRFTISRENAKNTLYLQMSSLKSEDTALYYCTRGYSSTSYAMDYWGQGTTVTVSGIEGR | soluble
5 | QVQLLQPGAELVKPGASVKLSCKASGYTFTSYWMYWVKQRPGQGLEWIGEIDPSDSYTNYNQNFKGKATLTVDKSSSTAFMQLSSLTSQDSAVYFCARSPHYYGTTYNYPMDYWGQGTSVTVSSAKTTPPSVYPLAPGCGDTTGSSVTLGCLVKGYFPESVTVTWNSGSLSSSVHTFPALLQSGLYTMSSSVTVPSSTWPSQTVTCSVAHPASSTTVDKKLEP | soluble
6 | QVQLQESGGGLVQPGGSLRLSCAASGFTFSNSAMSWVRQAPGKGLEWVSSISGSGGNTYSADSVKGRFTISRDNAKNSLYLQMNSLRAEDTAVYYCARDWYGMDVWGQGTTVTVSS | soluble
7 | QVQLQESGPGLMKPSETLSLTCSVSGDSIRSDYWSWIRKPPGKGLEYIGYVSYSGSTYYNPSLKSRVTISVDTSKNRFSLKLNSVTAADTAVYYCARWDGDYWGQGILVTVSS | soluble
8 | QVQLQQPGAELVKPGTSVKLSCKASGYNFTSYWINWVKLRPGQGLEWIGDIYPGSGITNYNEKFKSKATLTVDTSSSTAYMQLSSLASEDSALYYCAGQYGNLWFAYWGQGTLVTVS | soluble
9 | QYAPQTQSGRTSIVHLFEWRWVDIALECERYLGPKGFGGVQVSPPNENIVVTNPSRPWWERYQPVSYKLCTRSGNENEFRDMVTRCNNVGVRIYVDAVINHMCGSGAAAGTGTTCGSYCNPGSREFPAVPYSAWDFNDGKCKTASGGIESYNDPYQVRDCQLVGLLDLALEKDYVRSMIADYLNKLIDIGVAGFRIDASKHMWPGDIKAVLDKLHNLNTNWFPAGSRPFIFQEVIDLGGEAIKSSEYFGNGRVTEFKYGAKLGTVVRKWSGEKMSYLKNWGEGWGFMPSDRALVFVDNHDNQRGHGAGGSSILTFWDARLYKIAVGFMLAHPYGFTRVMSSYRWARNFVNGEDVNDWIGPPNNNGVIKEVTINADTTCGNDWVCEHRWREIRNMVWFRNVVDGQPFANWWDNGSNQVAFGRGNRGFIVFNNDDWQLSSTLQTGLPGGTYCDVISGDKVGNSCTGIKVYVSSDGTAQFSISNSAEDPFIAIHAESKL | soluble
10 | RDIIQYIPARSSYGTPPFVPPGPSPYVGTGMQEYRKLRSTLDKSHSELKKNLKNETLKEVDELKSEAGLPGKAVSANDIRDEKSIVDALMDAKAKSLKAIEDRPANLYTASDFPQKSESMYQSQLLASRKFYGEFLDRHMSELAKAYSADIYKAQIAILKQTSQELENKARSLEAEAQRAAAEVEADYKARKANVEKKVQSELDQAGNALPQLTNPTPEQWLERATQLVTQAIANKKKLQTANNALIAKAPNALEKQKATYNADLLVDEIASLQARLDKLNAETARRKEIARQAAIRAANTYAMPANGSVVATAAGRGLIQVAQGAASLAQAISDAIAVLGRVLASAPSVMAVGFASLTYSSRTAEQWQDQTPDSVRYALGMDAAKLGLPPSVNLNAVAKASGTVDLPMRLTNEARGNTTTLSVVSTDGVSVPKAVPVRMAAYNATTGLYEVTVPSTTAEAPPLILTWTPASPPGNQNPSSTTPVVPKPVPVYEGATLTPVKATPETYPGVITLPEDLIIGFPADSGIKPIYVMFRDPRDVPGAATGKGQPVSGNWLGAASQGEGAPIPSQIADKLRGKTFKNWRDFREQFWIAVANDPELSKQFNPGSLAVMRDGGAPYVRESEQAGGRIKIEIHHKVRIADGGGVYNMGNLVAVTPKRHIEIHKGGK | not soluble
11 | RDIKDLIVALDIGTSKVVAVVAEILPEGRFEVLGLGQHESRGMRKGVVVNIETTVNSIQRALEEAELMADCKIRDVYAGIAGSHIRSFNSSGMVAVKDKEVTATDVARVIETAKAVNIPTDQ | not soluble
12 | RDSGTVWGALGHGINLNIPNFQMTDDIDEVRWERGSTLVAEFKRKMKPFLKSGAFEILANGDLKIKNLTRDDSGTYNVTVYSTNGTRILDKALDLRILE | soluble
13 | REEYYVWDKEASINFIKPGQSDLFAEFEITDGMLDEIYQMTRNGEKCFPEFITHVKDKQGNVVSEVQRKLYVRKKPQYREEEAVTEVP | not soluble
14 | RKPLQEPCTIFLIANGDLINPASRLLIPRKTLNQWDHVLQMVTEKITLRSGAVHRLYTLEGKLVESGAELENGQFYVAVGRDKFKKLPYGELLFD | soluble
15 | RKVAAKMMQHQLEKHLKALNFDNPLFWTSLPTAADVCNAMNKRGLIYYCGDDFGALAGVDHQTVMEHERTLVDSADFILAASDKLAARFPDNKTTTLPHGVDFSLFSTPAEKASDLPNNGRKILGFYGSLSDWLDYRLIDQVAQHAPDWDLVFIGPNEFAHNPLPQRDNVHYLGPRAHHLLPSYSQHWDASWLPFVDNAQIKACNPLKLLE | not soluble
16 | RLADRMSQEGWEDPGSSSAQAAAIEHDTFGRDNDGDVILLFTAKDGIAHSPSFDKIKKYLDSLKTDHSDHVDAVTSYFDKRNAQLISKDGTTAFAAVSLRGDGEQTLKDFRAIESDLHPQFPEVTVQVAGSTAVADALDKGMSGDIKRAE | not soluble
17 | RLTRKEEWLREVLSSIREAIIVTNASGEIVLANPAASRLFMIEAARKRSIPVTNIEDAAMRELFERVQKRQSGIYNEELTAMTSKGKRTLKVTAVPVMRRGALFDGTVLVINDVT | not soluble
18 | RMMEGAIAIADLTVGDVMVPRSQMVSLPVESDLQTITKQMVESGHSRFPVHGENKDEVLGILLAKDLLRGVSANHTITNVHELLRPVGMIPESKKLNVLLKEFRLSHNHMAIVVDEYGGVAGLVTIEDILEQIVGDID | soluble
19 | RMNLFDLGTHHALVDYAHNPAGYEAVGAFVKNWPGERIGVVGGPGDRRDEDLILLGRIAAAVFDRIIVKEDDDKRGRHAGEVADLIRQGIQEENPNCQYETILDEQRALNVALDEAPQEALVVIFPES | not soluble
20 | RPKLTDGVQSGDVQGDRALVWSRTDRPARMIVEWDTRSVFSEPRRLVSPVTDERLDYTARIDLRGLPADQSIFYRVRFEDARDGSLSKPWFGHLRSAPSEARNIRFVWSGDTCGQGFGINPDIGGMRIYEAMRRRQPDFFLHSGDTIYADGPIPERIETESGRIWRNRVTEAKSKVAETLDEFRGNYRYNLLDDNLRRFNAEVPQIWQWDDHETTNNWSSSKQLDERYQVKDIDVLAARARQAFLEYAPLRFQRQGRDGRIYRKVAYGPLLDVFVLDMRSYRGGNSANLQARRSAATDFLGREQLQWLKRELRGSRAQWKVIAADMPIGLCVPDGKDAQGRDRWEAIANGNDGAALGRELEIADLLRFVQRAGVRNTVWLTADVHYCAAHHYSPERAAFKDFAPFWEFVAGPLNAGSFGPNALDGTFGPQVMFQKAPLVQNSSPFAGYQFFGEVEIDAQSRALTVTLRDLDGEPVFSQELQPD | not soluble
21 | RPNDIYVNMKTDFKAQLARCQKLLDGGARGQNACSEIYIHGLGLAINRAINIALQLQAGSFGSLQVAANTSTVELVDELEPETDTREPLTRIRNNSAIHIRVFRVTPK | not soluble
22 | RQNLSSDIDILQSDTMPANAELAGLLQVAVGDTLFRIKVLSKVENRVVDYATMFFPAARLPGLPDAYLRHRSVTRALDDCGVADYTRRFTRVTARLPDAETVDYLGIPKNRPVLHVKSLNVDGEGRPVQYGVTCFNGDLVQLVMEQE | not soluble
23 | RQVQKELGDVLVRLHNPVVLTPTTVQVTWTVDRQPQFIQGYRVMYRQTSGLQATSSWQNLDAKVPTERSAVLVNLKKGVTYEIKVRPYFNEFQGMDSESKTVRTTEE | soluble
24 | RRLETQKEAEANRGYGKPSLGGPFHLEDMYGNEFTEKNLLGKFSIIYFGFSNCPDICPDELDKLGLWLNTLSSKYGITLQPLFITCDPARDSPAVLKEYLSDFHPSILGLTGTFDEVKNACKKYRVYFSTPPNVKPGQDYLVDHSIFFYLMDPEGQFVDALGRNYDEKTGVDKIVEHVKSYVPAEQRAKQKEAWYSFLFK | soluble
25 | RSDSMILMTVNPKTKKTTMMSLERDILTRIESGNGQAHEAKLNSAYADGGAELAIETIQKMMNIHIDRYVMVNMRGLQKLVDAVGGITVNNILGFPISISDQEEFNTISIGVGEQHIGGEEALVYARMRYQDPEGDYGRQKRQREVIQKVMEKALS | not soluble
26 | RSTIGAGQKVNVEFVSANPTGPMHVGHVRGAVVGDALARLLAYAGWNVTREYYINDGGAQVDVLARSAFERYREAHGLEPEIREGLYPGDYLIPVGEALKAKYGDSLLDKGEQHWLTEVREFATEMMMQMIREDLAALGVEMDVYSSEKALYGTGKIEAALDRLKEMDLIYEGVLEPPKGKTPEDWEPREQTLFRSTAHGDDVDRPVKKSDGSWTYFAPDIAYHYDKVTRGFDQLIDIFGADHGGYVKRMKAAVAALSAGRVPLDIKLIQLVKLWKNGEPFKMSKRAGTYVTLRDVVEQVGTDVTRFVMLTRKNDATLDFDFDKVLEQSKENPVFYVQYANARINSVLRKAREQGMDVSDA | not soluble
